From patent US9394555B2, “Compositions comprising a polypeptide having cellulolytic enhancing activity and a dioxy compound and uses thereof” (priority 2010, dated 2016)

Experiments:
Format in all cases: biochemical
[1] = molecular target: T1, T. aurantiacus GH61A polypeptide (Thermoascus aurantiacus, UniProt G3XAP7, N13Y); assay: Bacterial cellulose conversion assay (Examples 15, 16); conditions: A. oryzae CEL3A beta-glucosidase (50 mg protein per g cellulose) only; 72 hours, 50° C.
Procedure: Bacterial cellulose was prepared from NATA DE COCO (Huerto International Trading, Lucena City, Philippines) by extensive rinsing of one 500 ml can of cubes with water followed by homogenation for 15 minutes in 0.25 M sodium hydroxide using a WARING BLENDER® (Waring Products, Torrington, Conn., USA). The resulting slurry was pelleted at 40,000×g in a SORVALL® RT7 centrifuge. The supernatant was discarded. The pellet was then resuspended in 0.25 M sodium hydroxide and stirred overnight at 4° C. This procedure was repeated four times. Following the first washing steps, the cellulose was washed six times under similar conditions, substituting water for 0.25 M sodium hydroxide. Following the water washing, the cellulose was again homogenized for 15 minutes in a WARING BLENDER®, and adjusted to a final volume of 250 ml.
A 0.36% bacterial cellulose slurry was prepared as described in Example 14. This 0.36% slurry was thoroughly resuspended by shaking, and quickly transferred to a 100 ml beaker and stirred rapidly with a magnetic stirrer. Seven hundred μl aliquots of the bacterial cellulose slurry were pipetted into wells of a 2.0 ml 96-deepwell plate (Axygen, Union City, Calif.) using a 1000 μl micropipette with a wide aperture tip (end of tip cut off about 2 mm from the base). One hundred μl of 10 mM MnSO4-500 mM sodium acetate pH 5 was then added to each well. One hundred μl of either deionized water, a 1% gallic acid solution dissolved in water, or a 1% gallic acid solution containing 50 mM EDTA were added to each well. Enzyme mixtures were prepared and then added simultaneously to all wells in a volume of 100 μl, for a total of 1 ml in each reaction. […] All experiments reported were performed in triplicate.
(§1) Primary analysis of the hydrolysis reactions was performed using an AGILENT® 1100 HPLC with CHEMSTATION® software equipped with an AMINEX™ HPX-87H column. After approximately 4 days, the deep-well plate was removed from the incubator and chilled overnight to 4° C. The plate was then mixed well by inversion and briefly centrifuged 52×g in a SORVALL® RT7 centrifuge for 10 seconds. Samples were then mixed by pipetting, and 200 μl from each well were transferred to a MULTISCREEN® HV centrifuge filter plate assembly. The centrifuge filter plate assembly was centrifuged at 2000 rpm in a SORVALL® RT7 centrifuge for 20 minutes. […] Sugars were detected using a refractive index detector with quantification by integration compared to purified sugar standards.
(§2) All HPLC data processing was performed using MICROSOFT EXCEL™ software. […] In this assay only glucose was measured since beta-glucosidase was at high levels in all samples but the controls. Percent conversion was determined using Equation 1. Triplicate data points were averaged and standard deviation was calculated.
The bacterial cellulose hydrolysis assay was performed as described in Example 15.
Data was collected and analyzed, as described in Example 15, after 72 hours of incubation at 50° C.

[2] = molecular target: T1, T. aurantiacus GH61A polypeptide; assay: Phosphoric acid swollen cellulose (PASC) hydrolysis assay (Examples 18, 19); conditions: A. oryzae CEL3A beta-glucosidase (20 mg protein per g cellulose) only; 72 hours, 50° C.
Procedure: A 1% phosphoric acid swollen cellulose (PASC) slurry was prepared from AVICEL® PH101 using the protocol described by Zhang et al., 2006, Biomacromolecules 7: 644-648.
The 1.0% PASC slurry prepared as described in Example 17 was thoroughly resuspended by shaking, and quickly transferred to a 100 ml beaker and stirred rapidly with a magnetic stirrer. Five hundred μl aliquots of the 1.0% PASC slurry were pipetted into wells of a 2.0 ml 96-deepwell plate (Axygen, Union City, Calif., USA) using a 1000 μl micropipette with a wide aperture tip (end of tip cut off about 2 mm from the base). One hundred μl of 10 mM MnSO4-500 mM sodium acetate pH 5 were then added to each well. […]
Primary analysis of the hydrolysis reactions was performed using an AGILENT® 1100 HPLC with CHEMSTATION® software equipped with an AMINEX™ HPX-87H column. […] Sugars were detected using a refractive index detector with quantification by integration compared to purified sugar standards.
as §2, with “calculated” for “determined”, “calculated. […]” for “calculated.”
Data were collected and analyzed, as described in Example 18, after 72 hours of incubation at 50° C.

[3] = molecular target: T1, T. aurantiacus GH61A polypeptide; assay: Phosphoric acid swollen cellulose (PASC) conversion assay (Examples 20, 21); conditions: A. oryzae CEL3A beta-glucosidase (20 mg protein per g cellulose) only; 72 hours, 50° C.
Procedure: A 1.0% PASC slurry was prepared as described in Example 17. Ten ml of the 1.0% PASC slurry, 10 ml of H2O, and […] of dioxy compound were thoroughly mixed by shaking,
Five hundred μl aliquots of the 0.50% phosphoric acid swollen cellulose/0.05% dioxy compound slurry were pipetted into wells of a 2.0 ml 96-deepwell plate (Axygen, Union City, Calif., USA) using a 1000 μl micropipette with a wide aperture tip (end of tip cut off about 2 mm from the base). One hundred μl of 10 mM MnSO4-500 mM sodium acetate pH 5 were then added to each well. Two hundred μl of deionized water were added to each well. Enzyme mixtures were prepared and then added simultaneously to all wells in a volume of 200 μl, for a total of 1 ml in each reaction. […] All experiments reported were performed in triplicate.
as §1
as §2, with “calculated” for “determined”
The PASC assay was performed as described in Example 20.
Data were collected and analyzed, as described in Example 20, after 72 hours of incubation at 50° C.

T1 sequence (G3XAP7 whole entry N13Y): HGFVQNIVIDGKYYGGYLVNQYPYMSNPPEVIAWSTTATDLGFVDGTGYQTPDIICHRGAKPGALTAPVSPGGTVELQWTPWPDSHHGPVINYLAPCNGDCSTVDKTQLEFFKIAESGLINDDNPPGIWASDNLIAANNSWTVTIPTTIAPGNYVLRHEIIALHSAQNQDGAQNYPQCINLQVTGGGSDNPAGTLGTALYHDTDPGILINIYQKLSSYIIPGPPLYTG

B1: A. oryzae CEL3A beta-glucosidase: CEL3A beta-glucosidase (SEQ ID NO: 112), recombinantly prepared as described in WO 2004/099228 (protein, listed as Aspergillus oryzae)
chain: MKLGWIEVAALAAASVVSAKDDLAYSPPFYPSPWADGQGEWAEVYKRAVDIVSQMTLTEKVNLTTGTGWQLERCVGQTGSVPRLNIPSLCLQDSPLGIRFSDYNSAFPAGVNVAATWDKTLAYLRGQAMGEEFSDKGIDVQLGPAAGPLGAHPDGGRNWEGFSPDPALTGVLFAETIKGIQDAGVIATAKHYIMNEQEHFRQQPEAAGYGFNVSDSLSSNVDDKTMHELYLWPFADAVRAGVGAVMCSYNQINNSYGCENSETLNKLLKAELGFQGFVMSDWTAHHSGVGAALAGLDMSMPGDVTFDSGTSFWGANLTVGVLNGTIPQWRVDDMAVRIMAAYYKVGRDTKYTPPNFSSWTRDEYGFAHNHVSEGAYERVNEFVDVQRDHADLIRRIGAQSTVLLKNKGALPLSRKEKLVALLGEDAGSNSWGANGCDDRGCDNGTLAMAWGSGTANFPYLVTPEQAIQNEVLQGRGNVFAVTDSWALDKIAAAARQASVSLVFVNSDSGEGYLSVDGNEGDRNNITLWKNGDNVVKTAANNCNNTVVIIHSVGPVLIDEWYDHPNVTGILWAGLPGQESGNSIADVLYGRVNPGAKSPFTWGKTRESYGSPLVKDANNGNGAPQSDFTQGVFIDYRHFDKFNETPIYEFGYGLSYTTFELSDLHVQPLNASRYTPTSGMTEAAKNFGEIGDASEYVYPEGLERIHEFIYPWINSTDLKASSDDSNYGWEDSKYIPEGATDGSAQPRLPASGGAGGNPGLYEDLFRVSVKVKNTGNVAGDEVPQLYVSLGGPNEPKVVLRKFERIHLAPSQEAVWTTTLTRRDLANWDVSAQDWTVTPYPKTIYVGNSSRKLPLQASLPKAQ
[1]
  conversion of the bacterial cellulose: 2.4±2.9%
[2]
  conversion of PASC: 2.4±0.5%
[3]
  conversion of the phosphoric acid swollen cellulose: 2.0±0.1%
